The values below come from patent publication US8992932B2 (Seattle Genetics, Inc., dated 2015).

B1: ADC of Example 49 (antibody, V domains shown)
VH: EVQLLESGGGLVQPGGSLRLSCAASGFTFSSAWMSWVRQAPGKGLEWVSYISSSGSTIYYADSVKGRFTISRDNSKNTLYLQMNSLRAEDTAVYYCAREGLWAFDYWGQGTLVTVSS
VL: QSVLTQPPSVSGAPGQRVTISCTGSSSNIGAGYVVHWYQQLPGTAPKLLIYDNNKRPSGVPDRFSGSKSGTSASLAISGLRSEDEADYYCAAYDDSLSGPVFGGGTKLTVLG
modifications: toxophore-linker on Cys (via S); toxophore-linker on Cys (via S)
B2: ADC of Example 53 (antibody, V domains shown)
VH: B1 VH
VL: B1 VL
modifications: toxophore-linker on Cys (via S); toxophore-linker on Cys (via S)
B3: ADC of Example 52 (antibody, V domains shown)
VH: B1 VH
VL: B1 VL
modifications: toxophore-linker on Cys (via S); toxophore-linker on Cys (via S)
B4: ADC of Example 55 (antibody, V domains shown)
VH: EVQLLESGGGLVQPGGSLRLSCAASGFTFSDYQMTWIRQTPGKGLEWVSGISWNGGSTHYADSVKGRFTISRDNSKNTLYLQMNSLRAEDTAVYYCAKGDYLVYSSYYFKSWGQGTLVTVSS
VL: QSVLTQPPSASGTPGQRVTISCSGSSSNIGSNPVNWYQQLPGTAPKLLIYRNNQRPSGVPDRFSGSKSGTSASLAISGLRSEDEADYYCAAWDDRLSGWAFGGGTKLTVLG
modifications: toxophore-linker on Cys (via S); toxophore-linker on Cys (via S)

This test concerns the target T1, C4.4a on A549 cells transfected with the sequence for the complete C4.4a receptor (Homo sapiens).
T1 chain: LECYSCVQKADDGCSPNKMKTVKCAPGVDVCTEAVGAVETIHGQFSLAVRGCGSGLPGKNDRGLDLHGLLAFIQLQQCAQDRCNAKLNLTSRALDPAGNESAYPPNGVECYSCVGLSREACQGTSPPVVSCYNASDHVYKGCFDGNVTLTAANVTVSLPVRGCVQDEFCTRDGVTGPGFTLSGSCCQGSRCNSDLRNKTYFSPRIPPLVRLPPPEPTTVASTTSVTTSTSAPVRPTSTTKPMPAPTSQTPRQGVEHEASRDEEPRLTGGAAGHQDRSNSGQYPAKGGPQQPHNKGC
Nature of the test: cell-based or functional assay.
Consider B1, for which the “IC50 [nM] A549: C4.4a (cell viability)” value turned out to be 0.076 nM.

For B2, the “IC50 [nM] A549: C4.4a (cell viability)” value was found to be 0.046 nM.

In the case of B3, the “IC50 [nM] A549: C4.4a (cell viability)” value was 0.04 nM.

B4: the “IC50 [nM] A549: C4.4a (cell viability)” value was found to be 0.053 nM.
